The nanobody polyreactivity screen of Harvey et al. (2022)

Assay: yeast display, Sf9 membrane polyspecificity reagent, FACS + sequencing; frameworks hold sequencing errors
Outline: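 Sorting gates, low and high (top ~1%), were placed on anti-HA fluorescence to track expression and on streptavidin fluorescence to track reagent binding. A clone's polyreactivity label is taken from the gate it came out of. The reagent was 10% biotinylated, detergent-solubilized Sf9 membrane, applied for 1 hour at 4 °C to galactose-induced yeast display cells.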

Sequence	polyreactivity (PSR sort gate)
QVQLVESGGGLVQAGGSLRLSCAASGSIFSYYAMGWYRQAPGKERELVAAISQNGGSTYYADSVKGRFTNSRDNAKNSVSFQMNRLKAEETAVYYCYAYSVYVRGEYWGQGTQVTVSS	high polyreactivity
QVQLVESGGGLVQAGGSLRLSCAASGSIFSYYAMGWYRQAPGKERELVAAISRSGASTSYADSVKGRFTISRDNAKNTVYLQMNSLKPEDTAVYYCAKRIYWRGSWGRYYYWGQGTQVTVSS	high polyreactivity
QVQLVESGGGLVQAGGSLRLSCAASGSIFSYYAMGWYRQAPGKERELVAAITWSGTRTYYADSVKGRFTISRDNAKNTVYLQMNSLKPEDTAVSYCAADSSIRDAYWGQGTQVTVSS	low polyreactivity
QVQLVESGGGLVQAGGSLRLSCAASGSIFSYYAMGWYRQAPGKERELVADISFTGDSTYYADSVKGRFTISRDNAKNTVYLQMNSLKPEDTAVYYCAKDEIIAVYFEYDYWGQGTQVTVSS	low polyreactivity
QVQLVESGGGLVQAGGSLRLSCAASGSIFSYYAMGWYRQAPGKERELVASISWNGTSTYYADSVKGRFTISRDNAKNTVYLQMNSLKPEDTAVYYCNAVLSGWGYFYGLNYWGQGTQVTVSS	low polyreactivity
QVQLVESGGGLVQAGGSLRLSCAASGSIFSYYDMGWYRQAPGKERELVADISSTGGSTYYADSVKGRFTISRDNAKNTVSIQMNSLKPEDTAVYYCAAEIGYWGQGTQVTVSS	high polyreactivity
QVQLVESGGGLVQAGGSLRLSCAASGSIFSYYSMGWYRQAPGKERELVAAITSGDGTNYADSVKGRFTISRDYAKNTVYLQMNSLKPEDTAVYYCAADAVDSYWREDYWGQGTQVTVSS	low polyreactivity
QVQLVESGGGLVQAGGSLRLSCAASGSIFSYYVMGWYRQAPGKERELVAAISWSGGSTYYADSVKGRFTISRDNAKNTVYLQMNSLKPEDTAVYYCAAGTYPYYWGQGTQVTVSS	low polyreactivity
QVQLVESGGGLVQAGGSLRLSCAASGSIFSYYVMGWYRQAPGKERELVAAISYSGGRTYYADSVKGRFTISRDNAKNTVYLQMNSLKPEDTAVYYCAASRRVGEVSYYYWGQGTQVTVSS	high polyreactivity
QVQLVESGGGLVQAGGSLRLSCAASGSIFSYYVMGWYRQAPGKERELVAAITRSGGSTYYADSVKGRFTISRDNAKNTVYLQMNSLKPEDTAVYDCNALWRVRGDYWGQGTQVTVSS	high polyreactivity
QVQLVESGGGLVQAGGSLRLSCAASGSIFTCNAMGWYRQAPGKERELVAAISYISGGTYYADSVKGRFTISRDNAKNTVYLQMNSLKPEDTAVYYCAAVVYYYTYHYWGQGTQGTVSS	low polyreactivity
QVQLVESGGGLVQAGGSLRLSCAASGSIFTFNAMGWYRQAPGKEREFVAAITRSGGRTYYADSVKGRFTISRDNAKNTVYLQMNSLKPEDTAVYYCAARPRGKYDYWGQGTQVTVSS	high polyreactivity
QVQLVESGGGLVQAGGSLRLSCAASGSIFTFYALGWYRQAPGQERELVAAISYSGGSTYYADSVTGRFTISRDNAKITVYLQMNSLKPEDTAVFYCARDYFVDGPGYDYWGQGTQVTVSS	low polyreactivity
QVQLVESGGGLVQAGGSLRLSCAASGSIFTFYAMGWYRQAPGKERELVAAISWSGGSTYYADSVKGRFTISRDNAKNTVYLQMNSLKPEDTAVYYCAARYYVYSSRAQYHHYDYWGQGTQVTVSS	high polyreactivity
QVQLVESGGGLVQAGGSLRLSCAASGSIFTFYTMGWYRQAPGKERELVAAISQTGGRTYYADSVKGRFTISRDTAKNTVYLQMNSLKPEDTAVYYCDADYYYDISDWVYEYYYWGQGTQVTVSS	high polyreactivity
QVQLVESGGGLVQAGGSLRLSCAASGSIFTFYTMGWYRQAPGKERELVATIRWSVGSTYYADSVKGRFTISRDNAKNTVYLQMNSLKPEDTAVYYCAADSQWSYPDYPGEYAYDYWGQGTQVSVSS	low polyreactivity
QVQLVESGGGLVQAGGSLRLSCAASGSIFTGNAMGWYRQAPGKERELVAAIRRSGA	low polyreactivity
QVQLVESGGGLVQAGGSLRLSCAASGSIFTGNAMGWYRQAPGKERELVAAISSTGTTNYADSVKGRFTISRDNAKNTVYLQMNSLKPEDTAVYYCARRWYSTWWYGYWGQGTQVTVSS	high polyreactivity
QVQLVESGGGLVQAGGSLRLSCAASGSIFTGNAMGWYRQAPGKERELVAAITRTGSTNYADSVKGRFTISRDNAKNTVYLQMNSLKPEDTAVYYCATDRTFTISNYDYWGQGTQVTVSS	low polyreactivity
QVQLVESGGGLVQAGGSLRLSCAASGSIFTGNAMGWYRQAPGKERELVASSTTTTDSTYYADSVKGRFTISRDNAKNTVYLQMNSLKPEDTAVYYCAAEYAVAWKYGLYFYFHFDYWGQGTQVTVSS	low polyreactivity
QVQLVESGGGLVQAGGSLRLSCAASGSIFTGYAMGWYRQAPGKERELVAAISRSGGRTYYADSVKGRFTISRDNAKYTVYLQMNRLKPEDTAVYYCNSVVSPWNQGYYYWGQGTQVTVSS	high polyreactivity
QVQLVESGGGLVQAGGSLRLSCAASGSIFTINTMGWYRPAPGKERELVAAITGSGGITYYADSVKGRFTISRDYAKNTVYLQLNTLKPEDTAVYYCAADYWWTIPEEPQGLGAVDYWGLGTQVTVSS	low polyreactivity

Sequence	polyreactivity (PSR sort gate)
QVQLVESGGGLVQAGGSLRLSCAASGSIFTINTMGWYRQAPGKERELVAAITGSGGITYYADSVKGRFTISRDNAKNTVYLQMNSLKPEDTAVYYCAADTGYVHDGYWGQGTQVTVSS	low polyreactivity
QVQLVESGGGLVQAGGSLRLSCAASGSIFTKYAMGWYRQAPGKERELLAAITSSSGRTYYADSVKGRFTISRDNAKNTVYLQMNSLKPEDTAVYYCNRGKRVAVSYRPGGYDYWGQGTQVTVSS	high polyreactivity
QVQLVESGGGLVQAGGSLRLSCAASGSIFTKYAMGWYRQAPGKERELVAAITWSGGRTYYADSVKGRFTISRDNAKNTVYLQMNSLKPEDTAVYYCAADFFRQGYYYWGQGTQVTVSS	high polyreactivity
QVQLVESGGGLVQAGGSLRLSCAASGSIFTLNAMGWYRQAPGKERELVASISKNGGRTYYADSVKGRFTISRDNAKNTVYLQMNCLKPEDTAVYYCAARYYFTPSDGRRYDYWGQGTQVTVSS	high polyreactivity
QVQLVESGGGLVQAGGSLRLSCAASGSIFTLYAMGWYRQAPGKERELVATINWSGGSTSYADSVKGRFTISRDNAKNTVYLQMNSLKPEDTAVYYCAADAGSYDALDYSDLLYDYWGQGTQVTVSS	low polyreactivity
QVQLVESGGGLVQAGGSLRLSCAASGSIFTNYAMGWDRQAPGKERELVAAIRSSGGSTYYADSVKGRFTISRDNAKNTVYFQLNSLKPEDTAVYYCAARKSYKYPVNSAVGYWGQGTQVTVSS	high polyreactivity
QVQLVESGGGLVQAGGSLRLSCAASGSIFTNYAMGWYRQAPGKERELVAAISQSGDTTYNADSVKGRFTISRDNAKNTVYLQMNSLKPEDTAVFFCAAQYYRWFYYWGQGTQVTVSS	high polyreactivity
QVQLVESGGGLVQAGGSLRLSCAASGSIFTPNAMGWYRQAPGKERELVAAISWSGGGTYYADSVKGRFTISRDNAKNTVYLQMNSLKPEDTADYYCAVDFRYQDAYEYYWGQGTQVTVSS	low polyreactivity
QVQLVESGGGLVQAGGSLRLSCAASGSIFTPNVMGWYRQAPGKERELVAAISQSGGSTFYADSVKGRFTISRDNAKNTVYLQMNSLKPEDTAVYYCAADDGYTYYYWGQGTQVTVSS	low polyreactivity
QVQLVESGGGLVQAGGSLRLSCAASGSIFTPYAMGWYRQAPGTEREFVAVISWRVDSTYYADSVKGRFTISRDNAKNTVYLQMNSLKPEDTAVYYCAAKSYLLAPFGSGNRWSRYDYWGQGTQVTVSS	high polyreactivity
QVQLVESGGGLVQAGGSLRLSCAASGSIFTPYTMGWYRQAPGKERELVAAISWGADSTYYADSVKGRFTISRDNAKNTVYLQMISLKPEDTAVYYCGDDYWGWSNGYEYWGQGTQVTVSS	low polyreactivity
QVQLVESGGGLVQAGGSLRLSCAASGSIFTQNAMGWYRQAPGKERALVAAMSSGGSTNDADSVKGRFTISRDNAKNTVYLQMNSLTPEDTAVDYCAKSIDGWYWRRRRYDYWGQGTQVTVSS	low polyreactivity
QVQLVESGGGLVQAGGSLRLSCAASGSIFTQYVMGWYRQAPGKERELGAAITWSGGNTYYADSVKGRFTISRDNAKNTVYLQMNSLKPEDTAVYYCAAYKPYSKYNYWGQGTQVTVSS	high polyreactivity
QVQLVESGGGLVQAGGSLRLSCAASGSIFTRNAMGWYRQAPGKERELVARISARSGRTYYADSVKGRFTISRDNAKNTVYLQMNSLKPEDTAVYYFAVRYRGKYPFRYNYWGQGTQVTVSS	high polyreactivity
QVQLVESGGGLVQAGGSLRLSCAASGSIFTRYAMGWYRQAPGKERELVAAISSGGSTYYADSVKGRFTISRDNAKNTVYLQMNSLKPEDTAVYYCAKDSGSYRVGIYEPFPYGYWGQGTQVTVSS	low polyreactivity
QVQLVESGGGLVQAGGSLRLSCAASGSIFTRYAMGWYRQAPGKERELVAAISTSGGSTYYADSVKGRFTISRDNAKNTVYLQMNSLKPEDTAVYYCAADDQRRSGYYSWGQGTQVTVSS	high polyreactivity
QVQLVESGGGLVQAGGSLRLSCAASGSIFTSNVMGWYRPAPGKERELVAAITITGTTNYADSVKGRFTISRDNAKNTVYLQMNSLIPVDTAVYYCAKDPVDLSPADWRADYDYWGQGTQVTVSS	low polyreactivity
QVQLVESGGGLVQAGGSLRLSCAASGSIFTSYAMGWYRQAPGKERELVAGIDWSGGGTYYADSVKGRFTISRDNAKNTVYLQMNSLKPEDTAVYYCNADGPYTRYGPVDYWGQGTQVTVSS	low polyreactivity
QVQLVESGGGLVQAGGSLRLSCAASGSIFTTYAMGWYRQAPGKERELVAAISSTSGSTYYADSVKGRFTISRDNAKNTVYLQMNSLKPEDTAVYYCAARGGYWGQGTQVTVSS	low polyreactivity
QVQLVESGGGLVQAGGSLRLSCAASGSIFTVYAMGWYRPAPGKEREFVAAITGSGGRTYYADSVKGRFTISRDNAKNTVYLQMNSLKPEDTAVYYCAATTRPGYRYEGDYWGQGTQVTVSS	low polyreactivity
QVQLVESGGGLVQAGGSLRLSCAASGSIFTVYAMGWYRQAPGKERELVAVINYRGGNTYYADSVKGRFTISRDNAKNTVYLQMNSLKPEDTAVYNCATEVSWHWYQLSVPRMDYWGQGTQVTVSS	low polyreactivity
